We go through 21 sequences from a protein production outcome set (Wang et al. 2014).
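Note: failed if final PepcDB status was selected cloned or expressed and not failed if soluble or beyond.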

A short description of the series: label from the status in PepcDB records.
Regarding “MEEKNGSSEVEIGEKDETKKQSKDLEFLSCMMQPKTADSDPHYIGIRRILLHRKADSGVISRRYDWRCNGKGYVAYRNFISKPRKWENLRTPSLLSSPGNSGRWLPSPSPLSHQFEAESFTSSRDLRSVNQVSSRRASFSSSLSDGDNSYRRGGVEHAYSFVGMHCIFDQCKSSVTVLKFGHMSSDILAYGASDGSLTVCSLLEEPSVLKQLTGHSKDVTDFDFSSNNQYIASSSLDKTIRVWELSRGVCIRVIYGISPQYCIRFHPVNNNFLSAGNANKELTVFNFSTGRIIKKLLFEDEVTSMDHDHTGQIIFCGDGQGTVYSVSMDSHTGSLSRSHRHRTNHKSPVTTVKYRSFSLLASGPVLLTCTQDGNLSFFSVALQIKGYLTLRCSLKLAPRIHRIQASFCPLLSLEKGEYIVAGSEDSNVYFYDLTKPKHTCVNKLQGHRFPVMCVAWNHGENLLASSDFYGVVIVWKRAKTSS”, the protein production entry is listed as “failed”. In the case of “MEEKQPQKTKEPSKEDEPQQKEMPTHLSLGAESKAEAKTPVLVETQTVDNANEKSEKPPENQKKLSDKDTVATKIKAWWRGTLVRRALLHAALSACIIQCWWRLILSKILKKRRQAALEAFSRKEWAAVTLQSQARMWRIRRRYCQVLNAVRIIQAYWRCRSCASRGFIKGQYRVTANQLHLQLEILLDSGPCIVTECIPFSIKE” it was “failed”; in that of “MEELFCIGCGIQIQTEDKEKAGFTPAAALKKGMETGELYCQRCFRLRHYNEITDVHITDDEFLRLLHEVGDSDALVVNVIDIFDFNGSIIPGLSRFISGNDVLLVGNKKDILPKSVKDGKVTQWLTERAHEEGLRPLDVMLTSAQNKYAIKDLIGRINELRNGRDVYVVGVTNVGKSTLINAIIQEITGNKDVITTSRFPGTTLDKIEIPLDDGTFIFDTPGIIHRHQMAHYLSPKELKIVSPKKEIKPKTYQLNPEQTLFLGGLARFDFINGERQGFTAFFDNQLELHRTKLAGADAFYDKHVGTLLTPPDKKELTAFPKLVRHEFTIDQKMDIVFSGLGWIRVNGQKDSKAIVAAWAPEGVAVIVRKAIILEHHHHHH”, “not failed”; in that of “MEELLDILREFRDSRGWLKYHTPKNLAVSISIEVAELLEIFQWTRSSDEEFEVLERRKGEVEEEIADVLIYLLFLCDVAEINPIEAVKRKMEKNERKYPKNRVHEF”, “not failed”. The value for “MEEPEFQAYVGPRPFEQEDKFIFFGRDREARDLLSLVIAHNLVLVYAQSGAGKTSLINAGLIPLLKENRFEVFPVARVKGTPLRNIKTDEISNIYVLNTLTSWAEDEYDVERLTKMKLVDFLNEQERLQDEDGIPLPRAVIFDQFEEIFSLYQDRWKDREGFFEQISAALETDPLLRVVFVIREDFIAQLDPYVELLPERLRTRFHIERLRREAALLAIKEPLRDTGRSFAEGVAEKLVDDLLKIRVETTPGETTEVTGEFIEAVQLQVVCQNLWRELPPDVKQITFHHLKTYGNVEQELYRFYEEAIRTAAATAHIDEESLRRLFGEVLITTMGTRGMVYRAQESTGGIPNTAIDVLESMHLIRAEWRAGARWYELTHDGFIKPILSSNRVFNDELAEKERAEKERIEKERIEKEWAEKEWAEKERLEKERAEKERLEKELRAEKELAESKQLFYKRLAAISFLAILLALVAVFEWHQAKENAEEARASDLNLNSALLQGDPRNLDKSVLLAIESLKIHITSTADHLIRQGLLSMPHRVVILKHYSDVNNVVFSPDGKYVATASNDNTSRLWDVSTGKQIFVLNHTDPVRNVVFSPDGKYVATASADKTAGVWNTTTGEGISVLNHTGRVNNVVFSPDGKYIATASDDNTSRLWDTATGKQIFVLNQTDPVRNVVFSPDGKYIATASADNTSRLWDTTTGKQIFDMKHDGPVNIVVFSPDGKYVATASADKKARLWNATTGKKIFDMKHDSGINTVVFSPDGKYIVTASDDKTAGVWNTTTGKKIFDMKHDGSVNTVVFSPDGKYIATASADNTSRLWDTATGEKIFFLNHYGWVNTVVFSPDGKYVATASADKTAHLWDVSTGKQISYLRHDSGVNNVVFGPDGKYVVTASADKTADVWNTTTGEKIFVLNHTGRVNNAVFSPDGKYIATASADNTSRLWDTTTGKQIFVLNQTDPVRNVVFSPDRKYIATASDDNTSRLWDTATGKQILVLNHDGPVNTVVFSSDGKYIATASDDNTSRLWDTATGEEIFVLNHTDRVNNVVFSPDGKYIATAGDDNTSRLWGTATGEKIFDMKHDGPVNNVVFSPDGKYVATAGYDNTACLWDTATGEKIFVLNHAGRVNTVVFSPDGKYIATASADKARLWNATTGKQISYLRHDSGVNNVVFSPDGKYIATASVDKTARLWTAKLWISDTEDLIDEANNRLTRNLKPEEWKEYMGDKPYHKRFPNLP” was “failed”; that for “MEERNEQVVEEVKEEVKEAQVEEAVTSEDSEESVEEKSEAALLQEKVDELQAKLTETEGRMLRLQADFENYKRRVQMDKQAAEKYRAQSLVSDILPALDNFERAMQVEANDEQMKSLLQGMEMVYRQLLEAMTKEGVEAIEAVGKQFDPHEHQAVMQVEDSEFESNAVVEEFQKGYKLKDRVIRPSMVKVNQ” was “failed”; that for “MEESTVQAPSKRRCSVYEVDGFRFRRKKKRTTESSFVEPIQKEVSNSDSCGHVNDDLNNEEKENKLNVATVPIKSRETVSLAKQEEKTKKLYCESISKDQSEEQRLKALCEAVWTEIYKEAIEEKLPEKGTSLRVLEDVRVAFLDQLTWYLDNPEQRSKTVSEISRPNPINLELEVKIKSLEHDLNCYCNELLGWSNAKSILEEPAKDNKSNETAFSIEERAKKIAVSLSSPYQPQLTRLIKEATVCLDINFTELLEICRIVLTFKNQTAERIKVSYKQELFSNHYQHENS” was “failed”.

For the sequence “MEFILEPWHWFVLGILLMLSELVITAFAALWFGIAAIMVSVLLWLFPMMGITTQVIMWIILSVLCTLLWFKFIKPLSIDKTKAGLSREATIGQIGMVIRVGLSHEQIVVRFALPVLGADEWNCRSLAPVEVGDRVCVVDIMGNDLVVQPHIPINNK”, the protein production entry was “failed”. On to “MEFPKMLTRKIKLWDINAHITCRLCSGYLIDATTVTECLHTFCRSCLVKYLEENNTCPTCRIVIHQSHPLQYIGHDRTMQDIVYKLVPGLQEAEMRKQREFYHKLGMEVPGDIKGETCSAKQHLDSHRNGETKADDSSNKEAAEEKPEEDNDYHRSDEQVSICLECNSSKLRGLKRKWIRCSAQATVLHLKKFIAKKLNLSSFNELDILCNEEILGKDHTLKFVVVTRWRFKKAPLLLHYRPKMDLL”, for which the protein production entry is listed as “failed”. Turning to “MEFWESSFIEKQTMWGFEPTESAILTKDFFLEKNVKNILVPGIGYGRNAKVFIDNGINVTGIEISKTAIDLARENGLEDVSMYHGSVNEMPFDNKLYDGIFSHALLHLLNEQEREKFIEDCYNQLKPGGYMVFTTVSKKAPMYGKGKQLDKDYYEIMDGVKMFFYDSESIKKDFNQYRLVQVSEIDEPNKNMANKPSINFLMIKCKKER”, the protein production entry was “failed”. In the case of “MEGFHMVSDMCPQITGWRIYVFVVRVFKNVISPNVFELGLILADYAGSNSRIEATVDRRLAPFYEDRFVENEWKTITSFLVRKATDSVRATKHEYGILFMDRTVVVEAPPRSPPVPDFDFTPFDYILEKSAYKNVLVDVVGALVDVGGLTTDYYGLKMSFKIKDRYNEVLECEARNKQAEYLDGYFKSLGKGNFVVALSFWRLTELSNPKLASHGAISKVVANPDIPEVADIAMVVF” it was “failed”; in that of “MEGIMNPYTALPTPQQLLAIEQSVYSSDPFRQGLTPPQMPGDHMHPYGAEPLFHDLDSDDTSLSNLGDCFLATSEAGPLQSRVGNPIDHLYSMQNSYFTS”, “not failed”; in that of “MEGITYMNLGTNDKLPKLNTHYSSLSKRLMASFFDNVIISALSYLLSIIIFIIMTIFSFRYLDEFINHIYLIYFSLHFLVAFFYYITMESSSFQGTLGKLIADIKVVKLNGDKVSIFQAFCRFFIANILLYPAYFFYALVLYNVSNQIIINHSCNPYKINSFYFYGLISSSLIYLIYKLVMLITILISNKKQGIHDILIKTLVIIR”, “failed”. The value for “MEGKGSFSENLVKRLQLVKANRSHLAPLIDLLRSKVSKSVKRNKHFFRDYADQIYIVSSGFKEFILPIVTEFGIKEEHVMANTFTFDNDGNIIGCDANNPLSQDKGKIKLMEKLGLTGDVHVIGDGYTDYEIRGAGLASKFYAFTENVSRAAVTAKADSIAPSFDEILFQEKL” was “failed”; that for “MEGNFIVARFDKNTSFFEDLEEVCNKHGVKAGTVVWAIGMLKDFEVGYWNGQDYEKETFRERLEIVSLHGTIAENDPKYHIHASGARSNHMIVGGHLFSATVDPLIEIQIMKIEGPKMTRVQDPSDKLFKLKIE” was “failed”.

With “MEGSQQTITSKQLVRMLKDASRGSKGKGSGEMKFCFLIGAGASISSGIPSGAKLAWDWLQQIKEDCDGEDFEDWKIEIKMPDQHIEERVGEFYPEIYEKRFGHAPETGYDYIRGLMEGREPSLGYLILANIMVREKHNVVITTNFDNLLEDAIRTYTKEKPFIAGHEALADYVPKRSDRPIILKLHRDLFLQPFSDQLNTDILQAAWESILGKFLSDYHLIVLGYGGNDGSLMNYLLKLKNRKPIYWCVRNTDKATSKSLWNTLSPKAKRLLKNDGYLVPIDDFDRFMYDCYAALGYKFLEGIEKIEKPKSIHEILKPNYARIESIQTQLRQLSQTEEELSKESFQSIKSFLPDSWMWILKANQEKDIDKKDKIYREGIAKYPQDANLLGDYADFLCDICHDYDRAEAYYKRALEADPNHANTLGNYALFLKDVRHDYDQAEAYYKRALAADPNHANNLGNYANFLYNIRCDYDQAETYYKKALEADPNHANTLGNYANFLCDIRHDYDQAEGYYKKALEADPKNAITLGNYALFLNDIRHAYDQAEAYYKRALEVDPKSANKLGNYAHFLITCRGDFKRADSLIQQAFENADNDEETKPLQAKLWFYRYAHYYEEWGAEAEKELAALLNVGAKSIGWNLAPDIELARKNKHPHIEQVEAFAKALTEKAQ”, the protein production result is recorded as “failed”. The value for “MEGYRLLYPMRTYLIVSGHGEETNVMAADWVTVVSFDPFIVGVAVAPKRTTHKLIKKYGEFVISVPSLDVLRDVWIAGTKKGPSKLKEMSVTLIPSKKVKVPSIEEALANIECRVIDARSYGDHTFFVGEVVGYTYKDYAFEKGKPNLKAKFLAHVSWSEFVTFSEKVHKAE” was “not failed”. Consider “MEHICGTSRIAGFRFSLYPMTDDFISVIKSALKKTDTSKVWTKTDHISTVLRGSIDHVFDAAKAIYLHAANSEQHIVMNGTFSIGCPGDTQGDTYLSKGDKRVNEDAVRGLKAEAPCQFALYPMNEPDYMGLIMEAVDIAKAQGTFVQGVHYASELDGDAHDVFSTLEAVFRMAEQQTNHITMTVNLSANSPSRKNRKQG”, for which the protein production entry is recorded as “not failed”. Take “MEHKISEPNARVDVADVLRGLAVMGIIILHSIEHFNFYSFPDTVPCEWMKFTDKAIWNGLFFVFSNKAYAIFALLFGFSFYIQDNNQQRRGKDFRLRFIWRMALLFIIGQFNAAFFTGEILTMYAMLGLILPLSCRLSDRSIAIFATLLIIQPIDWCKVIYALCNPDYVAGPGLASHYFGIAFDVQKNGTFLETIRMNLWEGQLANLTWALEHGRILQTPALFLFGMLVGRKGLFLYSEQNEQHWLKALGISLICFFPLYGLNNMLPEFITRNAIRVPLQLIISSLSNLSFMVLLVSGLLITFYRIKDRRFLMRFTSYGKMSLTNYIGQSVIGSLLFYHWGFELGRFLGITYSFFFGILFVLLQMAFCSWWLSHFKHGPFEGLWKRLTWIGNNKRK”: the protein production result was “failed”.

For “MEHREKCTRCGQCLEVCSRYEDLGVLDRLYGYLDGSSNIDSESLLRCLTCGLCISACPENLGIKPLISPSRQKWINENGLSERLEHHHHHH”, the protein production entry was “failed”. As to “MEHTWMMKYFAEFFGTIILVVFGNGAVANSVLTKTGGNSHDGQANGGWLLIAFSFGFGVMLPAMMFGSISGNHLNPAVTLAQACAGAFPWNQVLPYILVQMLGAIVGQLLLVAVYWPFIAKTSSDDAVFASFSTGDIADSKLNGFITEFVGTAILLFVAVGLYRGMFFKQSEDIANIGVGFLITALVMAVGGPTGPALNPARDLGPRIVYALCPLPHKGSAHWDYGWIPVVAPIAGGICGALLYKLAFGL”, the protein production entry is on record as “failed”.
